Where a chain is given by its changes, count along the chain named.

These results are taken from patent US20250295772A1 (ABATA THERAPEUTICS, published 2025).

T1: preproinsulin 73-90 peptide complexed with HLA-DRB1*04:01 (human, UniProt P01903 26-254; P01911 30-266)
T1 MHC II alpha: not shown
T1 MHC II beta: not shown
T1 peptide: GAGSLQPLALEGSLQKRG

B1: TCR-K (TCR)
TCR alpha: RGNGKNQVEQSPQSLIILEGKNCTLQCNYTVSPFSNLRWYKQDTGRGPVSLTIMTFSENTKSNGRYTATLDADTKQSSLHITASQLSDSASYICVVSASSNTGKLIFGQGTTLQVKPDIQNPDPAVYQLRDSKSSDKSVCLFTDFDSQTNVSQSKDSDVYITDKTVLDMRSMDFKSNSAVAWSNKSDFACANAFNNSIIPEDTFFPSPESSCDVKLVEKSFETDTNLNFQNLSVIGFRILLLKVAGFNLLMTLRLWSS
TCR beta: DAGVIQSPRHEVTEMGQEVTLRCKPISGHNSLFWYRQTMMRGLELLIYFNNNVPIDDSGMPEDRFSAKMPNASFSTLKIQPSEPRDSAVYFCASSGQLVAYNEQFFGPGTRLTVLEDLKNVFPPEVAVFEPSEAEISHTQKATLVCLATGFYPDHVELSWWVNGKEVHSGVSTDPQPLKEQPALNDSRYCLSSRLRVSATFWQNPRNHFRCQVQFYGLSENDEWTQDRAKPVTQIVSAEAWGRADCGFTSESYQQGVLSATILYEILLGKATLYAVLVSALVLMAMVKRKDSRG
B2: TCR-K DS (TCR)
TCR alpha: B1 TCR alpha with T165C
TCR beta: B1 TCR beta with S172C
B3: TCR-S DS (TCR, V domains shown)
V domain 1: QKEVEQDPGPLSVPEGAIVSLNCTYSNSAFQYFMWYRQYSRKGPELLMYTYSSGNKEDGRFTAQVDKSSKYISLFIRDSQPSDSATYLCAMSEYSGYALNFGKGTSLLVTP
V domain 2: GITQSPKYLFRKEGQNVTLSCEQNLNHDAMYWYRQDPGQGLRLIYYSQIVNDFQKGDIAEGYSVSREKKESFPLTVTSAQKNPTAFYLCASSNRDEQYFGPGTRLTVTE
B4: TCR-Q (TCR, V domains shown)
V domain 1: KDQVFQPSTVASSEGAVVEIFCNHSVSNAYNFFWYLHFPGCAPRLLVKGSKPSQQGRYNMTYERFSSSLLILQVREADAAVYYCAVGDTGGFKTIFGAGTRLFVKA
V domain 2: DSGVTQTPKHLITATGQRVTLRCSPRSGDLSVYWYQQSLDQGLQFLIHYYNGEERAKGNILERFSAQQFPDLHSELNLSSLELGDSALYFCASSEIAGFSTDTQYFGPGTRLTVLE
B5: TCR-N (TCR, V domains shown)
V domain 1: GESVGLHLPTLSVQEGDNSIINCAYSNSASDYFIWYKQESGKGPQFIIDIRSNMDKRQGQRVTVLLNKTVKHLSLQIAATQPGDSAVYFCAEISKTSYDKVIFGPGTSLSVIP
V domain 2: NAGVTQTPKFRILKIGQSMTLQCAQDMNHNYMYWYRQDPGMGLKLIYYSVGAGITDKGEVPNGYNVSRSTTEDFPLRLELAAPSQTSVYFCASSYGPGGRNTIYFGEGSWLTVVE
B6: TCR-L (TCR, V domains shown)
V domain 1: RKEVEQDPGPFNVPEGATVAFNCTYSNSASQSFFWYRQDCRKEPKLLMSVYSSGNEDGRFTAQLNRASQYISLLIRDSKLSDSATYLCVVLRNSGNTPLVFGKGTRLSVIA
V domain 2: DAGITQSPRHKVTETGTPVTLRCHQTENHRYMYWYRQDPGHGLRLIHYSYGVKDTDKGEVSDGYSVSRSKTEDFLLTLESATSSQTSVYFCAIKPGQGNRGEQFFGPGTRLTVLE
B7: TCR-O (TCR, V domains shown)
V domain 1: KQEVTQIPAALSVPEGENLVLNCSFTDSAIYNLQWFRQDPGKGLTSLLLIQSSQREQTSGRLNASLDKSSGRSTLYIAASQPGDSATYLCAVTGMDSSYKLIFGSGTRLLVRP
V domain 2: DAEITQSPRHKITETGRQVTLACHQTWNHNNMFWYRQDLGHGLRLIHYSYGVHDTNKGEVSDGYSVSRSNTEDLPLTLESAASSQTSVYFCASSEGGSWGYTFGSGTRLTVVE
B8: TCR-M (TCR, V domains shown)
V domain 1: DQQVKQNSPSLSVQEGRISILNCDYTNSMFDYFLWYKKYPAEGPTFLISISSIKDKNEDGRFTVFLNKSAKHLSLHIVPSQPGDSAVYFCAASAKTSGSRLTFGEGTQLTVNP
V domain 2: NAGVTQTPKFRILKIGQSMTLQCTQDMNHNYMYWYRQDPGMGLKLIYYSVGAGITDKGEVPNGYNVSRSTTEDFPLRLELAAPSQTSVYFCASRGGIQETQYFGPGTRLLVLE

This test concerns the target T1, preproinsulin 73-90 peptide complexed …. Description: cell-based or functional assay.
In the case of B1, the “EC50 (nM) of CD69 upregulation, conventional CD4+ T cells + BLS-DRB1*04:01 cells, peptide titrated” value (from here on “EC50 (nM) of CD69 upregulation”) amounted to 47.7 nM.

Consider B2, for which the “EC50 (nM) of CD69 upregulation” value was determined as 19.1 nM. On to B3, for which the “EC50 (nM) of CD69 upregulation” value came out at 10000 nM.

Turning to B4, the “EC50 (nM) of CD69 upregulation” value was 409 nM.

In the case of B5, the “EC50 (nM) of CD69 upregulation” value amounted to 28.2 nM. For the molecule B6, the “EC50 (nM) of CD69 upregulation” value worked out at 498 nM.

For the molecule B7, the “EC50 (nM) of CD69 upregulation” value is 6.34 nM.

Take B8: the “EC50 (nM) of CD69 upregulation” value was 244 nM.
